# Measured values reported in paper PMC4824100.
# T1: FKBP25 (FKBP3) wild type (Homo sapiens, UniProt Q00688 1-224)
# T1 sequence: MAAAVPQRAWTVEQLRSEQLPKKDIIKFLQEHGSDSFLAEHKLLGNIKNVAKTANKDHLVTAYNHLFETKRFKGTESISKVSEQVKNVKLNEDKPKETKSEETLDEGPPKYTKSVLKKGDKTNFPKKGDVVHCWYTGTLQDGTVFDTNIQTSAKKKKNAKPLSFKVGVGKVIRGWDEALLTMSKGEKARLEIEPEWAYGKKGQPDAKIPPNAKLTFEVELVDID
# Tests used:
# FKBP25 (FKBP3) wild type = biological target: T1, FKBP25 (FKBP3) wild type; assay: NMR PRE
# YY1-DBD = YY1-DBD (UniProt P25490 286-414); assay: ITC
# YY1-DBD, sequence (P25490 286-414): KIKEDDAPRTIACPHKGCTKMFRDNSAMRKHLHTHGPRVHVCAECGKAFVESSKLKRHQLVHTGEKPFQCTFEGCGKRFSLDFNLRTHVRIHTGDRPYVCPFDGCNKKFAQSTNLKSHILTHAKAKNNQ
Binder,binding result (FKBP25 (FKBP3) wild type),Kd (YY1-DBD) [nM]
"DNA-1 (dT-EDTA at position 5) (dsDNA, dT-EDTA at T5 of strand 1 (Mn2+ or Ca2+ chelated)) DNA 1: AGGGTCTCCATTTTGAAGCATGC DNA 2: GCATGCTTCAAAATGGAGACCCT",binds,–
DNAYY1 23-bp (dsDNA) DNA 1: AGGGTCTCCATTTTGAAGCATGC DNA 2: GCATGCTTCAAAATGGAGACCCT,–,390 ± 600
"DNA-2 (dT-EDTA at position 27) (dsDNA, dT-EDTA at residue 27 (T4 of strand 2; numbering 24-46 on antisense)) DNA 1: AGGGTCTCCATTTTGAAGCATGC DNA 2: GCATGCTTCAAAATGGAGACCCT",binds,–
